41 sequences from the nanobody polyreactivity screen of Harvey et al. (2022) can be followed below.

The data set can be described thus: yeast display, Sf9 membrane polyspecificity reagent, FACS + sequencing; frameworks hold sequencing errors. The method, boiled down:
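Nanobodies from a synthetic yeast display library (Saccharomyces cerevisiae BJ5465), induced 36–48 hours with galactose, were stained 1 hour at 4 °C with 10% biotinylated, detergent-solubilized Sf9 membrane reagent, enriched on streptavidin microbeads, then FACS-sorted. Anti-HA (expression) and streptavidin (reagent binding) fluorescence set low and high (top ~1%) gates. Polyreactivity labels come from the gate of origin. Genes were colony-PCR amplified, MiSeq 2 × 250 sequenced and filtered by CDR length.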
In the case of “QVQLVETGGGLVQAGGSLRLSCAASGSTFVSNAMGWYSQAPGKERELVAAISYIGGGTYYADSEKGRFTISRDNAKNTVYLQMNSLKPEDTAVYYCAAGTPYDLDDYCGQGTQVTVSS”, the “polyreactivity (PSR sort gate)” value is “low polyreactivity”.
For “QVQLVETGGGLVQAGGSLRLSCAASGSTFVYYAMGWYRQAPGKERELVAAISSGGNTKYADSVKGRFTISRDNAKNTVYLQMNSLKPEDTEVYYCARESQSYYDHDYWGQVTQVTVSS”, the “polyreactivity (PSR sort gate)” value is reported as “low polyreactivity”.
On to “QVQLVETGGGLVQAGGSLRLSCAASGSTFWYNAMGWYRQAPGKERELVAAISRSGATTYYADSVKGRFTISRDNAKNTVYLQMNSLKPEDTAVYYCNAVISPSSYVRNSDYWGQGTQVTVSS”, for which the “polyreactivity (PSR sort gate)” value is given as “low polyreactivity”.
For “QVQLVETGGGLVQAGGSLRLSCAASGSTFWYNAMGWYRQAPGKESELVAAISRSGATTYYADSVKGRFTISRDNAKNTVYLQMNSLKPEDTAVYYCNKVRQYRYRGYTFDYWGQGTQVSVSS”, the “polyreactivity (PSR sort gate)” value is “low polyreactivity”.
Turning to “QVQLVETGGGLVQAGGSLRLSCAASGSTIYLYAAMGLYRQAPGKESELVAAISGSGGSTFYADSVKGRFTISRDNAKNTVYLQMNSLKPEDTAVYYCAADKRYPYETYRPSVSASDSWGQGTQVTVSS”, the “polyreactivity (PSR sort gate)” value is reported as “low polyreactivity”.
Turning to “QVQLVETGGGLVQAGGSLRLSCAASGYNLNSNAMGWYRQAPGKEREFVASITESGGTTYYADSVKGRFTISRDNAKNTVYLQMNSLKPEDTAVYYCAADLVDWWYSSDLYDYWGQGTQVTVSS”, the “polyreactivity (PSR sort gate)” value was “high polyreactivity”.
As for “QVQLVETGGGLVQAGGSLRLSCAPSGSIFEYNGMGWYRQAPGKERELVAAITTTGTTDYADSVKGRFTISRDNAKNTVYLQMNSLKPEDTAVYYCAADYTYYYKGEYDYWGQGTQVTVSS”, the “polyreactivity (PSR sort gate)” value is “low polyreactivity”.
The value for “QVQLVETGGGLVQAGGSLRLSCAPSGSIFGLNAMGWYRQAPGKERELVAAINTDGDTYYADSVKGRFTISRDNAKNTVYLQMNSLIPEDTAVFYCAADYYWDPFDSNFGHVPQEYESWGQGTQVTVSS” was “low polyreactivity”.
For “QVQLVETGGGLVQAGGSLRLSCAPSGSTFNSNVMGWYRQAPGKERELLAAISRSGGNTYYADSVKGRFTISRDNAKNTVYLQMNSLKQEDTAVYYCNVVFFSYYHGAYRGYDYWGQGTQVTVSS”, the “polyreactivity (PSR sort gate)” value is “high polyreactivity”.
Turning to “QVQLVETGGGLVQAGGSLRLSCPASGRTFAKYAMGRYRQAPGKERELVAAISDSGGSTYYEDSVKGRFTISRDNAKNTVYLQMNSLKPEDTAVYYCAADGRYTYYWGQGTQVTVSS”, the “polyreactivity (PSR sort gate)” value was “high polyreactivity”.
As to “QVQLVETGGGLVQAGGSLRLSCSASRLTFVYYTMGWYRQAPGKERELVAAITSSGGSTYYADSLKGRFTISRDNAKNTVYLQMNSLKPEDTAVSYCNAYWTYEFPSYDYWGPGTQVTVSS”, the “polyreactivity (PSR sort gate)” value was “low polyreactivity”.
“QVQLVETGGGLVQAGGSLRLSFAASGIISYHNAMGWYRQAPGKERELLAGITYSGGSTYYEDSVKGRFTISRVNAKNTVYLQMNSMKPEDTAVYFCAARVVYWTWSCLSKMDYWGQGTQVTVSS”: the “polyreactivity (PSR sort gate)” value is listed as “high polyreactivity”.
For “QVQLVETGGGLVQAGGSLRLSSAASGRTFYRYAMGWYRQAPGKDRELVATISRSGANTYADSVKGRFTISRDNAKNTVYLQMNSLKPEDTAVYYCNAGQYKGWGRMDYWGQGTQVTVSS” the value was “high polyreactivity”; for “QVQLVETGGGLVQAGGSLRLSSAASGSTFRDYDMGWYRQARGKERELVAAISLSGGRTHYADSVKGRFTISRDNAKNTVYLQMNSLKPEDTAVYYCAARNSGPVQYYYWGQGTHVTVSS”, “low polyreactivity”.
For “QVQLVETGGGLVQAGGSLRLSSAASGSTFTYNVMGWYRQAPGKERELVAAISRIAGRTYYADSVKGRFTISRDTAKNTVYLQMNSLKPEDTAVYYCAALALKWRYDFWGQGTQVTVSS”, the “polyreactivity (PSR sort gate)” value is reported as “high polyreactivity”.
On to “QVQLVETGGGLVQAGGSLSLSCAASGSTFAYYAMGWYRQAPGKERELVAGITWTGGSTYYADSVKGRFTISRDNAKNTVYLQMNSLKPEDTAVYYCAVTYPYGYEYDHWGQGTQVTVSS”, for which the “polyreactivity (PSR sort gate)” value is “low polyreactivity”.
For the sequence “QVQLVETGGGLVQAGGSRRLICAATGRIFYWYAMGCYRQAPGKERELVATISSAGTTYYADSVKGRFTISRDNAKNTVYLQMNSLKQEDTAVYYCAVPRVGLHGIGSDYWGQGTQVTVSS”, the “polyreactivity (PSR sort gate)” value is “high polyreactivity”.
For the sequence “QVQLVETGGGLVQAGGTLRLSCAASGSTFNAYAKGWYIQAPGKERELVAVISSSGGRTYYADSEKGRFTISRDNAKNTVYLQLNSLKPEDTAVYYCNADVKYLYNHWGQGTQVTVSS”, the “polyreactivity (PSR sort gate)” value is recorded as “high polyreactivity”.
As for “QVQLVETGGGLVQAGSSLRLSCAASGSTFIVYAMGWYRQAPGKEREFVAAITYRGGSSYYADSVKGRFTISRDNAKNTVYLQMNSLKPEDTAVYYCATETDRYPYIRRYQFPYYYWGQGTQVTVSS”, the “polyreactivity (PSR sort gate)” value was “high polyreactivity”.
Take “QVQLVETGGRKVQPGGSLRLSCAASRRTFDHNAMGWYRQAPGKERELVAAITWSGGITDYADSVKRPFTISRDNAKNTVYLEMFSLKPEDTAVWGQGTQVSVSS”: the “polyreactivity (PSR sort gate)” value is “low polyreactivity”.
Turning to “QVQLVETGRGLVQAGGSLRLSSAASGFTFGPYDMGWYIQAPGKERELVATIRSGDSTKYADSVKGRFTISRDNAKNTVYLQMNSLKPEDSAGYYCARDARASARRKRDDYWGQGTQVTVSS”, the “polyreactivity (PSR sort gate)” value was “low polyreactivity”.
The value for “QVQLVETVGCLVQAGGSLRLSSAASGRIFPYNAMGRYRQAPGKERELVAAIDWRDNTYYADSVKGRFTISRDNATNTVYLQMNSLIPEDTAVYDCNVDYTDYFLNKYDYWGQGTQVTVSS” was “low polyreactivity”; that for “QVQLVGSGGGLVQAGGSLRLSCAASGRTFDRNTMGWYRQAPGKERELVAAISSSGGSTYYADSVKGRFTISRDNAKNTVYLQMNSLKPEDTAVYYCAVLSRQYFRYGYDYWGQGTQVTVSS” was “high polyreactivity”; that for “QVQLVGSGGGLVQAGGSLRLSCAASGRTFWTNAMGWYRQAPGKERELVAAIRNSGGRTYYADSVKGRFTISRDNAKNTVYLQMNSLKPEDTAVYYCNARSSIRPRQGGYEHWGQGTQVTVSS” was “low polyreactivity”.
In the case of “QVQLVKSGGGLVQAGGSLRLSCAASGFIIPEYTMGWYRPAPGKERELVAAISGSGGSTYYADSVKGRFTISRDNAKNTVYLQMNSLKPEDTAVYYCAASYAVSRYLQTYAHAHGYWGQGTQVTVSS”, the “polyreactivity (PSR sort gate)” value is recorded as “low polyreactivity”.
In the case of “QVQLVKSGGGLVQAGGSLRLSCAASGFIIPEYTMGWYRQAPVKERELVAAISGSGGSTYYADSVKGRFTISRDNAKNTVYLQMNSLKPEDTAVYYCAASYAVSRYLQTYAHAHGYWGQGTQVTVSS”, the “polyreactivity (PSR sort gate)” value is “low polyreactivity”.
For “QVQLVKSGGGLVQAGGSLRLSCAASGSTFNKYTMGWYRQAPWKERELVAAITSGDSTYYADSVKGRFTISRDNAKNTVYLQMNSLKPEDTAVYYCAKSLRAYRHVIYGKALYSWGQGTQVTVSS”, the “polyreactivity (PSR sort gate)” value is recorded as “low polyreactivity”.
For “QVQLVQSGGGLFQAGGSLRLSCAASGRTFEPNAMGWYRQAPGKERQLVAAITNGGSTSYADSVKGRFTISRDNAKNSVYLQMNSLKPEDTAVYYFAGDLGRNLLHTYYYWGQGTQVTVSS”, the “polyreactivity (PSR sort gate)” value is given as “low polyreactivity”.
For “QVQLVQSGGGLVHAGGSLRLSCAASGRIFGINAMGWYIQAPGKERELVAAINWSGGSTYYADSVKGRFTISRDNAKNTVYLQMNSLKPEDTAVYYCADQKYQRVGYWGQGTQVTVSS” the value was “high polyreactivity”.
The value for “QVQLVQSGGGLVQAGGSLRLSCAASGLIFYPYAMGWYRQAPGKERELVAAITSGDSTYYADSVKGRFTISRDNAKNTVYLQMNSLKPEDTAVYYCNAYQWGGRYWLVTYDYWGQGTQVTVSS” was “low polyreactivity”; that for “QVQLVQSGGGLVQAGGSLRLSCAASGLTLRGNTMGWYRQAPGKEREMVADITASAGSTYYADSVKGRFTISRDNAKNTVYLQMNSLKPEDTAVYYCATVRYDVAAWAYSEYYYWGQGSQVTVSS” was “low polyreactivity”.
For “QVQLVQSGGGLVQAGGSLRLSCAASGRIFADNAMGWYRQAPGKERELVADITYSGGSTYYADSVKGRFTISRDNAKNTVYLQMNILKPEDTVVYYCAAGRSSLYFPGYYYWGQGTLVTVSS” the value was “low polyreactivity”.
In the case of “QVQLVQSGGGLVQAGGSLRLSCAASGRIIGVNAMGWYRLAPGKERQLVADISSGRSTTYADSVKGRFTISRDNAKNTVYLQMNSLKPEDTALYYCNARFRFRYKFPSRHSWGQGSQVTVSS”, the “polyreactivity (PSR sort gate)” value is on record as “high polyreactivity”.
“QVQLVQSGGGLVQAGGSLRLSCAASGRTFGYYAMGWYRQAPGQERELVAAITRTGGSTHYADSVKGRFTISRDNAKNTVYVQMNSLKPVDTAVYYCARDYRYTIPYDYWGQGTQVTVSS”: the “polyreactivity (PSR sort gate)” value is on record as “low polyreactivity”.
Consider “QVQLVQSGGGLVQAGGSLRLSCAASGRTFPIYAMGWYRQAPWKERELVAAITRGGRTNYADSVMGRFTISRDNAKNTVYLQMNSLKPEDTAVYYCDARTYGTYLYAEYDYWGQCTQVTVSS”, for which the “polyreactivity (PSR sort gate)” value was “high polyreactivity”.
For “QVQLVQSGGGLVQAGGSLRLSCAASGSIFGYYAMGWYRQAPGKERELVAVITSVATTNYADSVKGRFTISRDNAKNTVYLQMNSLKPEDTAVYYCAARPQVKRGRYGYWGQGTQVTVSS”, the “polyreactivity (PSR sort gate)” value is reported as “low polyreactivity”.
For “QVQLVQSGGGLVQAGGSLRLSCAASGSTFWMNAMGWYRQAPGKEREFVAAITVRGGSTYYADSVKGRFTISRDNAKNTVYLQMNSLKPEDTAVYYCNRPSSLAWPWTGSFSRYDYWGQGTQVTVSS” the value was “low polyreactivity”; for “QVQLVQSGGGLVQAGGSLRLSCAASGYTIYLKAMGWNRQAPGKERELVAAITGSGDDTYYADSVKGRFTISRDNAKNTVYLQMKIMIPEDTAVYYCAARPYYTSSYKDYEYWGQGTQVTVSS”, “high polyreactivity”.
For “QVQLVQSGGGLVQAGGSLRLSCAASQNAMGWYRQAPGKERELVAAISKGGGRTYYADSVKGRFTISRDNAKNTVYLQMNSLKPEDTAVYYCNARYYSSQDADRHEYWGQGTQVTVSS”, the “polyreactivity (PSR sort gate)” value is listed as “high polyreactivity”.
With “QVQLVQSVGGLVQAGGSLRLSSAASGSTFTVYAMGWYRQAPGKERELVAAISWRGGSTYYADSVKGRFTISRDNAKKTVYLQMNSLKPEDTAVYYCAADGLDIAPYGYGYWGQGTQVTVSS”, the “polyreactivity (PSR sort gate)” value is reported as “low polyreactivity”.
For “QVQLVQSWRGLVQAGASLRLSCAASGRIFPGYAMGWYREAPGKERELDASSSRTGRTNYADSVKGRFTISRVNAKNTVYLQMNRLKPEYTAVYYCANASPWYFWGYDYWGQGSQVTVSS” the value was “low polyreactivity”.
